# Patent US20110118131A1 (published 2011)
# T1: Ep-CAM (UniProt P16422 24-265, limits assumed)
# T1 construct: Amine coupled to a CM5 chip in the Biacore assays
# T1 sequence (looked up): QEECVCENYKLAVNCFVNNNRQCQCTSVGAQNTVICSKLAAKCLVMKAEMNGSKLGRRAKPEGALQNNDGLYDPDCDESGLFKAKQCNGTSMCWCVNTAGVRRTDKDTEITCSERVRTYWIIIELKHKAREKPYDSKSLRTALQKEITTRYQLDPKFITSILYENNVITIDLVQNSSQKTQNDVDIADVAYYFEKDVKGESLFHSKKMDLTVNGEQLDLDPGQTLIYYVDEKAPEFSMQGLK
# Target: T1, Ep-CAM
# Assay: Biacore, Fab periplasmic extract
fold difference in affinity vs parental ING-1,binding result,Binder
,no binding,"ING-1 light chain R101F (Fab, V domains shown, Fab, periplasmic extract) VH: QIQLVQSGPELKKPGETVKISCKASGYTFTKYGMNWVKQAPGKGLKWMGWINTYTEEPTYGDDFKGRFAFSLETSASTANLQINNLKSEDTATYFCARFGSAVDYWGQGTSVTVSS VL: DIVMTQAAFSNPVTLGTSGSISCRSSKSLLHSNGITYLYWYLQKPGQSPQLLIYQMSNLASGVPDRFSSSGSGTDFTLRISRVEAEDVGVYYCAQNLELPFTFGGGTKLEMKR"
,no binding,"ING-1 light chain R101N (Fab, V domains shown, Fab, periplasmic extract) VH: QIQLVQSGPELKKPGETVKISCKASGYTFTKYGMNWVKQAPGKGLKWMGWINTYTEEPTYGDDFKGRFAFSLETSASTANLQINNLKSEDTATYFCARFGSAVDYWGQGTSVTVSS VL: DIVMTQAAFSNPVTLGTSGSISCRSSKSLLHSNGITYLYWYLQKPGQSPQLLIYQMSNLASGVPDRFSSSGSGTDFTLRISRVEAEDVGVYYCAQNLELPNTFGGGTKLEMKR"
,no binding,"ING-1 light chain R101Q (Fab, V domains shown, Fab, periplasmic extract) VH: QIQLVQSGPELKKPGETVKISCKASGYTFTKYGMNWVKQAPGKGLKWMGWINTYTEEPTYGDDFKGRFAFSLETSASTANLQINNLKSEDTATYFCARFGSAVDYWGQGTSVTVSS VL: DIVMTQAAFSNPVTLGTSGSISCRSSKSLLHSNGITYLYWYLQKPGQSPQLLIYQMSNLASGVPDRFSSSGSGTDFTLRISRVEAEDVGVYYCAQNLELPQTFGGGTKLEMKR"
,no binding,"ING-1 light chain R101D (Fab, V domains shown, Fab, periplasmic extract) VH: QIQLVQSGPELKKPGETVKISCKASGYTFTKYGMNWVKQAPGKGLKWMGWINTYTEEPTYGDDFKGRFAFSLETSASTANLQINNLKSEDTATYFCARFGSAVDYWGQGTSVTVSS VL: DIVMTQAAFSNPVTLGTSGSISCRSSKSLLHSNGITYLYWYLQKPGQSPQLLIYQMSNLASGVPDRFSSSGSGTDFTLRISRVEAEDVGVYYCAQNLELPDTFGGGTKLEMKR"
,no binding,"ING-1 light chain R101S (Fab, V domains shown, Fab, periplasmic extract) VH: QIQLVQSGPELKKPGETVKISCKASGYTFTKYGMNWVKQAPGKGLKWMGWINTYTEEPTYGDDFKGRFAFSLETSASTANLQINNLKSEDTATYFCARFGSAVDYWGQGTSVTVSS VL: DIVMTQAAFSNPVTLGTSGSISCRSSKSLLHSNGITYLYWYLQKPGQSPQLLIYQMSNLASGVPDRFSSSGSGTDFTLRISRVEAEDVGVYYCAQNLELPSTFGGGTKLEMKR"
,no binding,"ING-1 light chain R101E (Fab, V domains shown, Fab, periplasmic extract) VH: QIQLVQSGPELKKPGETVKISCKASGYTFTKYGMNWVKQAPGKGLKWMGWINTYTEEPTYGDDFKGRFAFSLETSASTANLQINNLKSEDTATYFCARFGSAVDYWGQGTSVTVSS VL: DIVMTQAAFSNPVTLGTSGSISCRSSKSLLHSNGITYLYWYLQKPGQSPQLLIYQMSNLASGVPDRFSSSGSGTDFTLRISRVEAEDVGVYYCAQNLELPETFGGGTKLEMKR"

# Second part, the binder before the results:
Binder,fold difference in affinity vs parental ING-1,binding result
"ING-1 light chain P100N (Fab, V domains shown, Fab, periplasmic extract) VH: QIQLVQSGPELKKPGETVKISCKASGYTFTKYGMNWVKQAPGKGLKWMGWINTYTEEPTYGDDFKGRFAFSLETSASTANLQINNLKSEDTATYFCARFGSAVDYWGQGTSVTVSS VL: DIVMTQAAFSNPVTLGTSGSISCRSSKSLLHSNGITYLYWYLQKPGQSPQLLIYQMSNLASGVPDRFSSSGSGTDFTLRISRVEAEDVGVYYCAQNLELNRTFGGGTKLEMKR",0.05 fold,
"ING-1 light chain R101W (Fab, V domains shown, Fab, periplasmic extract) VH: QIQLVQSGPELKKPGETVKISCKASGYTFTKYGMNWVKQAPGKGLKWMGWINTYTEEPTYGDDFKGRFAFSLETSASTANLQINNLKSEDTATYFCARFGSAVDYWGQGTSVTVSS VL: DIVMTQAAFSNPVTLGTSGSISCRSSKSLLHSNGITYLYWYLQKPGQSPQLLIYQMSNLASGVPDRFSSSGSGTDFTLRISRVEAEDVGVYYCAQNLELPWTFGGGTKLEMKR",,no binding
"ING-1 light chain R101H (Fab, V domains shown, Fab, periplasmic extract) VH: QIQLVQSGPELKKPGETVKISCKASGYTFTKYGMNWVKQAPGKGLKWMGWINTYTEEPTYGDDFKGRFAFSLETSASTANLQINNLKSEDTATYFCARFGSAVDYWGQGTSVTVSS VL: DIVMTQAAFSNPVTLGTSGSISCRSSKSLLHSNGITYLYWYLQKPGQSPQLLIYQMSNLASGVPDRFSSSGSGTDFTLRISRVEAEDVGVYYCAQNLELPHTFGGGTKLEMKR",,no binding
"ING-1 light chain Q55E (Fab, V domains shown, Fab, periplasmic extract) VH: QIQLVQSGPELKKPGETVKISCKASGYTFTKYGMNWVKQAPGKGLKWMGWINTYTEEPTYGDDFKGRFAFSLETSASTANLQINNLKSEDTATYFCARFGSAVDYWGQGTSVTVSS VL: DIVMTQAAFSNPVTLGTSGSISCRSSKSLLHSNGITYLYWYLQKPGQSPQLLIYEMSNLASGVPDRFSSSGSGTDFTLRISRVEAEDVGVYYCAQNLELPRTFGGGTKLEMKR",0.05 fold,
"ING-1 light chain R101K (Fab, V domains shown, Fab, periplasmic extract) VH: QIQLVQSGPELKKPGETVKISCKASGYTFTKYGMNWVKQAPGKGLKWMGWINTYTEEPTYGDDFKGRFAFSLETSASTANLQINNLKSEDTATYFCARFGSAVDYWGQGTSVTVSS VL: DIVMTQAAFSNPVTLGTSGSISCRSSKSLLHSNGITYLYWYLQKPGQSPQLLIYQMSNLASGVPDRFSSSGSGTDFTLRISRVEAEDVGVYYCAQNLELPKTFGGGTKLEMKR",0.04 fold,
"ING-1 light chain P100R (Fab, V domains shown, Fab, periplasmic extract) VH: QIQLVQSGPELKKPGETVKISCKASGYTFTKYGMNWVKQAPGKGLKWMGWINTYTEEPTYGDDFKGRFAFSLETSASTANLQINNLKSEDTATYFCARFGSAVDYWGQGTSVTVSS VL: DIVMTQAAFSNPVTLGTSGSISCRSSKSLLHSNGITYLYWYLQKPGQSPQLLIYQMSNLASGVPDRFSSSGSGTDFTLRISRVEAEDVGVYYCAQNLELRRTFGGGTKLEMKR",0.05 fold,
"ING-1 light chain P100S (Fab, V domains shown, Fab, periplasmic extract) VH: QIQLVQSGPELKKPGETVKISCKASGYTFTKYGMNWVKQAPGKGLKWMGWINTYTEEPTYGDDFKGRFAFSLETSASTANLQINNLKSEDTATYFCARFGSAVDYWGQGTSVTVSS VL: DIVMTQAAFSNPVTLGTSGSISCRSSKSLLHSNGITYLYWYLQKPGQSPQLLIYQMSNLASGVPDRFSSSGSGTDFTLRISRVEAEDVGVYYCAQNLELSRTFGGGTKLEMKR",0.06 fold,
"ING-1 light chain Q55D (Fab, V domains shown, Fab, periplasmic extract) VH: QIQLVQSGPELKKPGETVKISCKASGYTFTKYGMNWVKQAPGKGLKWMGWINTYTEEPTYGDDFKGRFAFSLETSASTANLQINNLKSEDTATYFCARFGSAVDYWGQGTSVTVSS VL: DIVMTQAAFSNPVTLGTSGSISCRSSKSLLHSNGITYLYWYLQKPGQSPQLLIYDMSNLASGVPDRFSSSGSGTDFTLRISRVEAEDVGVYYCAQNLELPRTFGGGTKLEMKR",0.05 fold,
"ING-1 light chain P100Q (Fab, V domains shown, Fab, periplasmic extract) VH: QIQLVQSGPELKKPGETVKISCKASGYTFTKYGMNWVKQAPGKGLKWMGWINTYTEEPTYGDDFKGRFAFSLETSASTANLQINNLKSEDTATYFCARFGSAVDYWGQGTSVTVSS VL: DIVMTQAAFSNPVTLGTSGSISCRSSKSLLHSNGITYLYWYLQKPGQSPQLLIYQMSNLASGVPDRFSSSGSGTDFTLRISRVEAEDVGVYYCAQNLELQRTFGGGTKLEMKR",0.04 fold,
